Laboratory results reported in publication PMC9393700.

Columns and labels:
Assay in all cases: SEC; Superdex S200 16/600 column; purified F proteins (Figure 2A)
[1] = molecular target: RSV A2 F DsCav1 (trimer) (respiratory syncytial virus A2)
[2] = molecular target: RSV head hMPV stem construct 1 (RHMS-1) (respiratory syncytial virus (RSV-A in Figure 1B) | human metapneumovirus (hMPV-A1 in Figure 1B)) (UniProt P03420)
[3] = molecular target: trypsin-treated hMPV B2 F (human metapneumovirus B2)

RSV A2 F DsCav1 (trimer) (natural protein)
stoichiometry N [1]: 3

RSV head hMPV stem construct 1 (RHMS-1) (from UniProt P03420 1-25; P03420 55-314)
stoichiometry N [2]: 3

trypsin-treated hMPV B2 F (natural protein)
stoichiometry N [3]: 3
